The target in data set [1] is T1, HIZR-1 WT (Caenorhabditis elegans, UniProt G5ED47 1-412).
T1 sequence: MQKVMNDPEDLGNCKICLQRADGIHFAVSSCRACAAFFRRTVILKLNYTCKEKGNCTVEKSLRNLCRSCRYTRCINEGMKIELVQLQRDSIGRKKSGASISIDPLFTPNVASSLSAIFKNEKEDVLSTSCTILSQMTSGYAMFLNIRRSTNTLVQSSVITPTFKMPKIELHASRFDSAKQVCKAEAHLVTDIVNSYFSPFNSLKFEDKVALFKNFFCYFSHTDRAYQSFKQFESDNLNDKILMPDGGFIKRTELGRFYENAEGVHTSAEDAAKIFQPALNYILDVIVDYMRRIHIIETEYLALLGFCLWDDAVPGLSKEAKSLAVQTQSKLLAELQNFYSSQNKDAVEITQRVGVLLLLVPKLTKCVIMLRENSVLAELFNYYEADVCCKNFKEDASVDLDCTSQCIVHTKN
The data set is described as follows: competition; EMSA; 5-5000 nM unlabeled mutant vs labeled HZA; does not compete; Licor Odyssey EMSA Buffer Kit per manufacturer; buffer composition, salt, pH and temperature not stated. The note with it: protein: recombinant; tags: N-terminal 6xHis (pTrcHisA). On the technique in general: A gel shift assay detects complexes by their altered migration in electrophoresis.

For the next data set, the target named is T2, HIZR-1 R63C (Caenorhabditis elegans, UniProt G5ED47 1-412, R63C).
T2 sequence: T1 sequence with R63C
The data set is described as follows: EMSA; legend: not bound; text: dramatically reduced; Licor Odyssey EMSA Buffer Kit per manufacturer; buffer composition, salt, pH and temperature not stated. The note with it: protein: recombinant; tags: N-terminal 6xHis (pTrcHisA); label: IRDye700.

In another data set the target is T3, HIZR-1 G23E (Caenorhabditis elegans, UniProt G5ED47 1-412, G23E).
T3 sequence: T1 sequence with G23E
The description is as above. The note with it: protein: recombinant; tags: N-terminal 6xHis (pTrcHisA); label: IRDye700.

In data set [2] the target is T1, HIZR-1 WT. The data set is described as follows: EMSA; apparent Kd; constant protein, variable labeled DNA; Licor Odyssey EMSA Buffer Kit per manufacturer; buffer composition, salt, pH and temperature not stated. The note with it: protein: recombinant; tags: N-terminal 6xHis (pTrcHisA); label: IRDye700.
For the next data set, the target named is T4, HIZR-1 S30L (Caenorhabditis elegans, UniProt G5ED47 1-412, S30L).
T4 sequence: T1 sequence with S30L
Kind of data set: EMSA; legend: not bound; text: dramatically reduced; faint fast band of unknown significance; Licor Odyssey EMSA Buffer Kit per manufacturer; buffer composition, salt, pH and temperature not stated. The note with it: protein: recombinant; tags: N-terminal 6xHis (pTrcHisA); label: IRDye700.

Where a chain is given by its changes, count along the chain named.

B1: Mutant HZA, unlabeled competitor (dsDNA)
DNA 1: TGTGTTATCAGAACATACAACATTAATGTCTCGAG
DNA 2: CTCGAGACATTAATGTTGTATGTTCTGATAACACA
As to B1, in the data set with HIZR-1 WT [1], the binding result is “no binding”.

B2: HZA WT, labeled (cdf-2 promoter) (dsDNA)
DNA 1: TGTGTTATCAATCATAAACTAGAACATGTCTCGAG
DNA 2: CTCGAGACATGTTCTAGTTTATGATTGATAACACA
In the case of B2, the binding result with HIZR-1 R63C, with HIZR-1 G23E and in the data set with HIZR-1 S30L was “no binding” throughout. Besides, the Kd with HIZR-1 WT [2] stood at 20.4 ± 6.8 nM.

Source of the values: paper PMC5240932, “The Nuclear Receptor HIZR-1 Uses Zinc as a Ligand to Mediate Homeostasis in Response to High Zinc”.
